The text below walks through data of patent publication US20220249814A1, “METHODS AND DEVICES FOR TREATING A DISEASE WITH BIOTHERAPEUTICS” (PROGENITY, INC., priority 2018, published 2022).

Marks after values point to notes of the source that are not given here.

Data set [1] can be described thus: Example 3 blood insulin pharmacokinetics after SC or intra-jejunal jet delivery. Type of data set: in vivo, Yorkshire female swine. Here is the method: A total of 18 Yorkshire female swine in good health and weighing 60-70 kg each were included in this study. Swine were divided into two groups with 9 animals per group. […] A sham surgical laparotomy was performed. […] The jet delivery device was configured with the single nozzle in an axial orientation.
Swine were divided into two groups with 9 animals per group. […] In all 18 animals, a laparotomy procedure was performed to expose the abdominal cavity. Animals remained under anesthesia during the entire procedure for the PK/PD study.
For the laparotomy in group 02, a small segment of the jejunal mucosa and serosa was exposed by midline laparotomy and the jet delivery device was inserted through antimesenteric incision.
(§1) Blood samples were kept on wet ice until centrifugation and separation of plasma. […] Glucose was monitored every five (5) minutes during the study by portable glucose analyzer (StatStrip (SS) hospital glucose monitoring system (Nova Biomedical, Waltham, Mass.)). At each time point, approximate 0.1 mL of blood was drawn and immediately placed on a glucose monitoring test strip, and the whole blood glucose concentration was measured by the SS in triplicate.
The animals were anesthetized for the entire ECP.

Data set [2] can be described thus: Example 3 euglycemic clamp pharmacodynamics (blood glucose, dextrose infusion rate). Type of data set: in vivo, Yorkshire female swine. On the procedure: as §1
A euglycemic clamp procedure (ECP) was employed to compare pharmacokinetics and pharmacodynamics of regular human Insulin (NOVOLIN® R) delivered subcutaneously (SC) in the neck versus intra-jejunally (IJ) by the jet delivery device in the small intestine. ECP was used to quantify the amount of glucose required to maintain normoglycemia after exogenous bolus of insulin. […] The animals were anesthetized for the entire ECP.

Data set [3] is described as follows: Example 6 dulaglutide plasma pharmacokinetics, ID via 2-nozzle device vs IV vs SC. Type of data set: in vivo, female Yorkshire pigs (Sus scrofa domesticus). The text has this: The study design is shown below in Table 35.
Blood samples were kept on wet ice until centrifugation. […] All samples were maintained chilled throughout processing.

The conditions of data set [4]: baseline dose, Admin. SC (Table 17); cited from earlier work.
Where [5] appears, read: IJ administration by jet delivery device (~40 U), Average of animals.
Where [6] appears, read: IJ administration by jet delivery device (~40 U), animal 18P17.
Where [7] appears, read: IJ administration by jet delivery device (~40 U), animal 18P22.
Setting [8] is: IJ administration by jet delivery device (~40 U), animal 18P23.
Setting [9] is: IJ administration by jet delivery device (~40 U), animal 18P25.
[10] abbreviates: IJ administration by jet delivery device (~40 U), animal 18P28.
[11] abbreviates: IJ administration by jet delivery device (~40 U), animal 18P33.
The mark [12] stands for this setting: IJ administration by jet delivery device (~40 U), animal 18P36.
Setting [13] is: SC administration, animal 18P15.
[14] abbreviates: SC administration, animal 18P16.
[15] abbreviates: SC administration, animal 18P19.
[16] abbreviates: SC administration, animal 18P20.
Setting [17] is: SC administration, animal 18P34.
Setting [18] is: SC administration, animal 18P35.
The mark [19] stands for this setting: ID via ingestible device, 320 psig.

“Novolin® R: regular human insulin (NOVOLIN® R)”: the “AUC of blood insulin, SC vs IJ group” value in data set [1] (AUC0-420 min) is listed as “higher than that of the IJ administration group”. The Cmax blood insulin was determined as 77.40 uIU/mL in data set [1] (setting [5]); 96.77 uIU/mL in data set [1] (IJ administration by jet delivery device (~40 U), animal 18P14); 5.03 uIU/mL in data set [1] (setting [6]); 7.96 uIU/mL in data set [1] (setting [7]); 48.77 uIU/mL in data set [1] (setting [8]); 40.93 uIU/mL in data set [1] (setting [9]). The Cmax blood insulin in data set [1] (setting [10]) came to 85.38 uIU/mL; in data set [1] (setting [11]), 207.96 uIU/mL; in data set [1] (setting [12]), 126.39 uIU/mL; in data set [1] (setting [13]) it was 451.00 uIU/mL; in data set [1] (setting [14]) it was 60.74 uIU/mL; in data set [1] (setting [15]), 354.00 uIU/mL. The Cmax blood insulin in data set [1] (setting [16]) stood at 356.60 uIU/mL; in data set [1] (SC administration, animal 18P21) it was 65.71 uIU/mL; in data set [1] (setting [17]), 59.18 uIU/mL; in data set [1] (setting [18]), 73.34 uIU/mL. Moreover, the Tmax blood insulin is reported as 55.63 min in data set [1] (setting [5]); 50 min in data set [1] (setting [6]); 90 min in data set [1] (setting [7]); 40 min in data set [1] (setting [8]); 20 min in data set [1] (setting [9]); 40 min in data set [1] (setting [10]). The Tmax blood insulin in data set [1] (setting [11]) is on record as 40 min; in data set [1] (setting [12]) it was 90 min; in data set [1] (setting [13]), 50 min; in data set [1] (setting [14]), 180 min; in data set [1] (setting [15]), 105 min; in data set [1] (setting [16]), 30 min. The results for the Tmax blood insulin in data set [1] (setting [17]) and in data set [1] (setting [18]) were 120 min and 50 min, respectively. Moreover, the “maximum plasma concentration Cmax, SC vs IJ group” value in data set [1] (in vivo, sc) is “higher than that of the IJ administration group”. The “mean dextrose infusion rate, IJ vs SC group” value is listed as “higher in the IJ administration group” in data set [2] (first 70 minutes after administration) and “higher in the SC administration group” in data set [2] (from 75 minutes to 420 minutes post-administration).

dulaglutide: the Tmax in data set [3] (ID via 2-nozzle device 320 psig, 1.2 mg, swine plasma) is 480 min. The “(AUC)T0-T240 h ± SEM” value in data set [3] (ID via 2-nozzle device 320 psig, 1.2 mg, one animal below detection limit excluded (N=4)) was 4355.86 ± 1094.57 ^a ng · hr/mL; in data set [3] (IV, 1.2 mg), 16429.33 ± 600.93 ng·h/mL; in data set [3] (SC, 1.2 mg) it was 8869 ± 887.33 ng·h/mL. For the same molecule, the “bioavailability relative to IV administration [(AUC)ID/IV*100%]” value in data set [3] (setting [19]) is “about 33%”. Moreover, the “bioavailability relative to SC administration [(AUC)ID/SC*100%]” value in data set [3] (setting [19]) is “about 61%”. Also, the “AUCID (ng·hr/mL±SEM)” value in data set [3] (ID via ingestible device, 320 psig, 1.2 mg, prior to exclusion of animal no. 8487, ±SEM) is 3890.00 ± 94.73 ng·h/mL. The “plasma level of dulaglutide” value in data set [3] (one animal in Group 1 (no. 8487; ID)) is given as “below the limit of detection of the ELISA assay”.

On to glucagon, for which the Bioavail. in data set [4] is 100.0%.

With somatropin, the Bioavail. in data set [4] is listed as 80.5%.

B1: concizumab (antibody, chains of the INN, looked up, V domains shown)
VH: EVQLVESGGGLVKPGGSLRLSCAASGFTFSNYAMSWVRQTPEKRLEWVATISRSGSYSYFPDSVQGRFTISRDNAKNSLYLQMNSLRAEDTAVYYCARLGGYDEGDAMDSWGQGTTVTVSS
VL: DIVMTQTPLSLSVTPGQPASISCKSSQSLLESDGKTYLNWYLQKPGQSPQLLIYLVSILDSGVPDRFSGSGSGTDFTLKISRVEAEDVGVYYCLQATHFPQTFGGGTKVEIK
For B1, in data set [4], the Bioavail. is 93.0%.
